In FireProtDB (doi:10.1021/bi9901228):

Conditions: Homo sapiens; pH 2.7; Thermal; DSC; glycine 0.05 M; reversible: yes; whole UniProt chain shown

B1: Lysozyme C wild type, P61626 (protein)
chain: MKALIVLGLVLLSVTVQGKVFERCELARTLKRLGMDGYRGISLANWMCLAKWESGYNTRATNYNAGDRSTDYGIFQINSRYWCNDGKTPGAVNACHLSCSALLQDNIADAVACAKRVVRDPQGIRAWVAWRNRCQNRDVRQYVQGCGV
- Tm: 64.9 °C
- heat capacity change of unfolding: 1.58 kcal/mol/K
- unfolding enthalpy (calorimetric): 114 kcal/mol
